The source of these data is paper PMC3591345, “A Novel Single-Strand Specific 3′–5′ Exonuclease Found in the Hyperthermophilic Archaeon, Pyrococcus furiosus”.

In data set [1] the target is PfuExo I (recombinant protein encoded by PF2046) (Pyrococcus furiosus) (UniProt Q8TZE9). The data set is described as follows: SEC; analytical gel filtration, SMART system, Superdex 200 3.2/30; 20 µM PfuExo I; 50 mM Tris-HCl pH 8.0, 0.5 mM DTT, 0.1 mM EDTA, 10% glycerol, 0.15 M NaCl; mass estimated against marker proteins.
The target in data set [2] is T1, PfuExo I (Pyrococcus furiosus, UniProt Q8TZE9 1-229).
T1 sequence: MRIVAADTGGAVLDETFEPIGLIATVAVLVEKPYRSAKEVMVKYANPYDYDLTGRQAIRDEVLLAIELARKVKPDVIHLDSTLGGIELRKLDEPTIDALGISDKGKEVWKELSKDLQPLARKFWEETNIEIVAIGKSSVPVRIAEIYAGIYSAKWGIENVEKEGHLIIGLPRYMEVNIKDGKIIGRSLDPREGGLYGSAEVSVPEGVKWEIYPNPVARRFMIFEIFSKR
The data set is described as follows: EMSA; no Mg2+, 0.1 mM EDTA; 1-1000 nM protein; 0.1% glutaraldehyde fixation; one shifted band; 20 mM triethanolamine (pH not stated), 50 mM NaCl, 0.1 mg/ml BSA, 0.1 mM EDTA, 2.5 nM DNA, 20 min at 37 C, then 0.1% glutaraldehyde; 4.5% native PAGE. To be noted: protein: recombinant, chain copies: 3, label: 32P (5'). (In general: Mobility shift assays separate free from complexed probe on a gel.)

By stoichiometry N is commonly meant the number of molecules, sites or subunits per partner or assembly. Consider “PfuExo I (recombinant protein encoded by PF2046) (from UniProt Q8TZE9 1-229) (enzyme)”, for which, in data set [1], the stoichiometry N was 3.

B1: 5'-overhang DNA d49F/d27 (dsDNA)
DNA 1: AGCTACCATGCCTGCACGAATTAAGCAATTCGTAATCATGGTCATAGCT
DNA 2: AGCTATGACCATGATTACGAATTGCTT
In the case of B1, the binding result in data set [2] (5' overhang 22 nt) is on record as “binds”.

B2: 3'-overhang DNA d49F/d22 (dsDNA)
DNA 1: AGCTACCATGCCTGCACGAATTAAGCAATTCGTAATCATGGTCATAGCT
DNA 2: AATTCGTGCAGGCATGGTAGCT
As to B2, in data set [2] (3' overhang 27 nt), the binding result is reported as “binds”.
